Measurements: IntAct's records for PubMed 20671708

Target: ago2_human AGO2 (UniProt Q9UKV8)
Sequence (Q9UKV8 whole entry): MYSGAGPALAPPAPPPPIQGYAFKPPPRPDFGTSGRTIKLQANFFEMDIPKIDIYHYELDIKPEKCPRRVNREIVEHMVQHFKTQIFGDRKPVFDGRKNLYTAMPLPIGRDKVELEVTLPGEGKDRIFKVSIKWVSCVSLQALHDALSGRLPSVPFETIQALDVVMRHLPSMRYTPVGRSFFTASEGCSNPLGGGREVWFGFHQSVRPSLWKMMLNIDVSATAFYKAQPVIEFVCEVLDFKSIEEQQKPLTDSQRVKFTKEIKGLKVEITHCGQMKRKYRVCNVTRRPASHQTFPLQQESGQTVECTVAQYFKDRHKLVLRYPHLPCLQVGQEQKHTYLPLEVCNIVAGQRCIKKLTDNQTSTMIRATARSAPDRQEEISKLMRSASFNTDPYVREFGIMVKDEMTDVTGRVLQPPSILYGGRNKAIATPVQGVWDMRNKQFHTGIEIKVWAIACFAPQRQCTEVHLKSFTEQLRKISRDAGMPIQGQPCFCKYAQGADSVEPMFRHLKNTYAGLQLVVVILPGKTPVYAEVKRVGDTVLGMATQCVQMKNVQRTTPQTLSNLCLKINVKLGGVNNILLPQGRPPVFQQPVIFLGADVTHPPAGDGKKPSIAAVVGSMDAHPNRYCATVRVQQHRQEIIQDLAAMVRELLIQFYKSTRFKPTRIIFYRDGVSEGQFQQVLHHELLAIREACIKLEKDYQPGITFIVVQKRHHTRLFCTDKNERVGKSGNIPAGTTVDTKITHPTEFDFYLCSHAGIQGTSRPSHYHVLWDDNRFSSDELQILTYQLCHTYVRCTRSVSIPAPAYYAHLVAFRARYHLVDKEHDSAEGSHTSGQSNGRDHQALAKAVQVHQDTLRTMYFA

Substance	effect of a mutation on the interaction
Leucine-rich repeat serine/threonine-protein kinase 2 (Homo sapiens), Q5S007 G2019S	increasing interaction
Leucine-rich repeat serine/threonine-protein kinase 2 (Homo sapiens), Q5S007 K1906M;D1994A;D2017A	increasing interaction
